{"source": "paper PMC8649762", "about": "“A Hyperthermoactive-Cas9 Editing Tool Reveals the Role of a Unique Arsenite Methyltransferase in the Arsenic Resistance System of Thermus thermophilus HB27” (mBio, 2021)", "key": {"[1]": {"biological_target": "T1, TtArsM (TTC0109) (Thermus thermophilus, UniProt Q72LF0)", "T1 construct": "gene TT_C0109; full-length, C-terminal His tag (pET30b NdeI/HindIII), E. coli BL21-CodonPlus(DE3)-RIL", "T1 sequence (Q72LF0 1-249)": "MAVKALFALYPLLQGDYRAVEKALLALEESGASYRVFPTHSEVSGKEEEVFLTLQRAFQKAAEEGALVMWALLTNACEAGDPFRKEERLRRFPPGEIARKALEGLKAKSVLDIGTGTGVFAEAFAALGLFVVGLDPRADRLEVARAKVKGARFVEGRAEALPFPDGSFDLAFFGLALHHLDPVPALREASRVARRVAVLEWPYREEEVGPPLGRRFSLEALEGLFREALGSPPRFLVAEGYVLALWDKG", "experiment": "coupled colorimetric SAH-release methyltransferase assay, […] nm; products by GC-MS", "assay_type": "biochemical", "settings": "methyl donor; same"}, "[2]": {"biological_target": "T2, TtSmtB-TtArsM complex (Thermus thermophilus, UniProt Q72KG0)", "T2 construct": "gene smtB; recombinant TtSmtB (E. coli, C-terminal His tag removed) plus C-terminally His-tagged TtArsM; with Arsenite methyltransferase (ArsR family transcriptional regulator / SAM-dependent methyltransferase domain protein)", "assay_type": "binding", "settings": "1:100 protein/arsenic ratio, arsenite preincubated with TtSmtB 10 min at 60 °C, co-IP buffer pH 7.5, weakens the protein-protein complex"}, "[3]": {"biological_target": "T3, TtArsM (Thermus thermophilus HB27) (UniProt Q72LF0)", "T3 sequence": "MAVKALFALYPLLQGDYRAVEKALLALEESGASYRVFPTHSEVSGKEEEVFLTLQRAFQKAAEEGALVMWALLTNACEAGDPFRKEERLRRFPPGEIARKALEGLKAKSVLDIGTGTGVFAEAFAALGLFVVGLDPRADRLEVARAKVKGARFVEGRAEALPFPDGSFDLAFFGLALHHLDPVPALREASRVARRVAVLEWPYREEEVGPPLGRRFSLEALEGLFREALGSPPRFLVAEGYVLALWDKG", "experiment": "EMSA", "settings": "EMSA: 20 ng parsM, 1 ug poly(dI-dC), SYBR Gold stain; buffer, salt, pH and temperature as in previous work (refs 23, 62), not given"}, "[4]": {"biological_target": "T4, Recombinant TtSmtB with the His tag removed (Thermus thermophilus HB27, UniProt Q72KG0 1-123)", "T4 construct": "TtSmtB, ArsR/SmtB family transcriptional repressor of Thermus thermophilus HB27; source: E. coli BL21-CodonPlus (DE3)-RIL, pET28/TtsmtB, purified; His tag removed; not shown: His tag, C-terminal, cleaved", "T4 sequence (looked up)": "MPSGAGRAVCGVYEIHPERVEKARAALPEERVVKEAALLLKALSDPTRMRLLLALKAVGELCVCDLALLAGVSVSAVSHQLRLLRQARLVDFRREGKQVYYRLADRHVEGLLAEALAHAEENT", "experiment": "co-IP; 5 μg TtSmtB (His tag removed) and 5 μg His-tagged TtArsM in co-IP buffer (50 mM Tris-HCl pH 7.5, 150 mM NaCl, 10% glycerol, 0.1% Triton X-100), 4°C, 2 h; immunoprecipitated with anti-TtSmtB antibodies and protein A-Sepharose, blot with anti-His; with or without arsenite, arsenate, cadmium or antimony at 1:0, 1:25, 1:50, 1:100 molar ratios preincubated with TtSmtB", "settings": "both partners purified"}, "[5]": {"biological_target": "the molecule itself", "experiment": "SEC; 500 μg purified TtArsM on analytical Superdex PC75, 50 mM Tris-HCl pH 7.5, 0.2 M KCl; calibrated with gel filtration markers"}}, "note": "Like-named read-outs stand apart in the source and are kept apart here."}
{"molecule": "C[S+](CC[C@H](N)C(=O)O)C[C@H]1O[C@@H](n2cnc3c(N)ncnc32)[C@H](O)[C@@H]1O", "note": "(some centres unmarked) [SAM]", "values": [{"measurement": "coupled colorimetric SAH-release methyltransferase assay, 510 nm; products by GC", "setting": "[1]", "value": "formation of S-adenosylhomocysteine (SAH) from SAM after transfer of methyl group(s) on the substrate"}]}
{"molecule": "O=[As](O)(O)O", "note": "[arsenate]", "values": [{"measurement": "fold decrease in complex band intensity", "setting": "[2]; with arsenate", "value": "up to 3"}]}
{"molecule": "O[As](O)O", "note": "[arsenite]", "values": [{"measurement": "fold decrease in complex band intensity", "setting": "[2]", "value": "up to 3"}]}
{"molecule": "GGAAGGGGAAGCGGTGTTTCTCGCCCCCGAGGCCAATCCCCCCTACGAGGAGGCGGACCAGGCGGGAAGGCGCGCGGGGAACCGCCCCGCCCTATACTTGGGGAGATG (double strand) [parsM]", "values": [{"measurement": "binding", "setting": "[3]", "value": "no binding"}]}
{"molecule": "Recombinant C-terminal His-tagged TtArsM (TTC0109) (enzyme, Thermus thermophilus HB27, UniProt Q72LF0 1-249, looked up, TtArsM (TTC0109) of Thermus thermophilus HB27; TtarsM gene PCR amplified from the genome and cloned NdeI/HindIII into pET30b(+); predicted mass 29.1 kDa; source: E. coli BL21-CodonPlus (DE3)-RIL, pET30b(+)/TtarsM, purified (HisTrap); not shown: His tag, C-terminal, kept) MAVKALFALYPLLQGDYRAVEKALLALEESGASYRVFPTHSEVSGKEEEVFLTLQRAFQKAAEEGALVMWALLTNACEAGDPFRKEERLRRFPPGEIARKALEGLKAKSVLDIGTGTGVFAEAFAALGLFVVGLDPRADRLEVARAKVKGARFVEGRAEALPFPDGSFDLAFFGLALHHLDPVPALREASRVARRVAVLEWPYREEEVGPPLGRRFSLEALEGLFREALGSPPRFLVAEGYVLALWDKG", "values": [{"measurement": "fold decrease of the co-IP band with arsenate (1:100 protein/arsenic ratio) against the complex without metal", "setting": "[4]", "value": "≤ 3", "unit": "fold"}, {"measurement": "fold decrease of the co-IP band with arsenite (1:100 protein/arsenic ratio) against the complex without metal", "setting": "[4]", "value": "≤ 3", "unit": "fold"}, {"measurement": "fold increase of the co-IP band with cadmium against the complex without metal", "setting": "[4]", "value": "≤ 2", "unit": "fold"}, {"measurement": "stoichiometry N", "setting": "[5]", "value": 2}]}
